T1: Hla
T1 chain: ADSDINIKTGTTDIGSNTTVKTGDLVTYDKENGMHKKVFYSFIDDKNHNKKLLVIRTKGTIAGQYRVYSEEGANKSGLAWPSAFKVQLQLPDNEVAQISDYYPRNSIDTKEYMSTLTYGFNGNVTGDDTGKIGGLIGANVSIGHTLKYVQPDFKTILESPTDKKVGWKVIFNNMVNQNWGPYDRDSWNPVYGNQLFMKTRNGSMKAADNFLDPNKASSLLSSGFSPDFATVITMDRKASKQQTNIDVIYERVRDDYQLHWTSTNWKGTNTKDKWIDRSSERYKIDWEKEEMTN

T2: LukF
T2 chain: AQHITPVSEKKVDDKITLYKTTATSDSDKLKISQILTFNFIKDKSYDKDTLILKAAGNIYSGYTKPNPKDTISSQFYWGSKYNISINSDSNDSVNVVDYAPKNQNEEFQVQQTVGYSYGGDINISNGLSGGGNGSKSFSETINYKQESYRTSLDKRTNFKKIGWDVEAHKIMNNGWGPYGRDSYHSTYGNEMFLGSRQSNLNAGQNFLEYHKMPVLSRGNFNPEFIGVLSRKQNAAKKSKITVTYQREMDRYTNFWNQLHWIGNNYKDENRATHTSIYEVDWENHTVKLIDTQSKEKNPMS

T3: HlgB
T3 chain: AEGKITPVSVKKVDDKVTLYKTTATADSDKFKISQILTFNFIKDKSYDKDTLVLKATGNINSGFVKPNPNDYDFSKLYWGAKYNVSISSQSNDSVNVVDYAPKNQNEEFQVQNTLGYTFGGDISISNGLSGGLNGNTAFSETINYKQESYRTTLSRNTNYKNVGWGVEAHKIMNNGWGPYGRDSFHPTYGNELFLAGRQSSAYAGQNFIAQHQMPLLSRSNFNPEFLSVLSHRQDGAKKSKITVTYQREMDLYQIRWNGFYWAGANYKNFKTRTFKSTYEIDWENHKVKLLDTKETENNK

T4: LukD
T4 chain: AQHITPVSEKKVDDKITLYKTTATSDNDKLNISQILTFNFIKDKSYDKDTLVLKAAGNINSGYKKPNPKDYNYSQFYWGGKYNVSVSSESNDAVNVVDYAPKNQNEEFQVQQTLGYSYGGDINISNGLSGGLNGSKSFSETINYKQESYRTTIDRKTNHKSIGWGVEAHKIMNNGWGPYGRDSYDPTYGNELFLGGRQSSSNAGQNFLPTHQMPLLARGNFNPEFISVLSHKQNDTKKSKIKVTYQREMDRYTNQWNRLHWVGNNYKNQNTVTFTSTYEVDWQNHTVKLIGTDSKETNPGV


Key:
Hla = biological target: T1, Hla
LukF = biological target: T2, LukF; assay: MSD solution equilibrium; Fab
HlgB = biological target: T3, HlgB; assay: MSD solution equilibrium; Fab
LukD = biological target: T4, LukD; assay: MSD solution equilibrium; Fab

| Binder | Kd (Hla) | Kd (LukF) | Kd (HlgB) | Kd (LukD) |
| --- | --- | --- | --- | --- |
| AB-28-6 (antibody, V domains shown) VH: QVQLQESGPGLVRPSETLSLTCAVSGYSISSGMGWGWIRQPPGKGLEWIGSIDQRGSTYYNPSLKSRVTISVDTSKNQFSLKLSSVTAADTAVYYCARDAGHAVDMDVWGKGTTVTVSS VL: DIQMTQSPSSVSASVGDRVTITCRASQGISRWLAWYQQKPGKAPKLLIYAASSLQSGVPSRFSGSGSGTDFTLTISSLQPEDFATYYCQQGYVFPLTFGGGTKVEIK | < 0.002 nM | 0.016 nM | 0.0025 nM | 0.4 nM |
| AB-28-5 (antibody, V domains shown) VH: QVQLQESGPGLVKPSETLSLTCAVSGYSISSGMGWGWIRQPPGKGLEWIGRVDQRGSTYYNPSLKSRVTISVDTSKNQFSLKLSSVTAADTAVYYCARDAGHGVDMDVWGKGTTVTVSS VL: DIQMTQSPSSVSASVGDRVTITCRASQGISRWLAWYQQKPGKAPKLLIYAASSLQSGVPSRFSGSGSGTDFTLTISSLQPEDFATYYCQQGYVFPLTFGGGTKVEIK | 0.03 nM |  | 0.16 nM | 0.16 nM |
| AB-28-10 (antibody, V domains shown) VH: QVQLQESGPGLVKPSETLSLTCAVSGYSISSGMGWGWIRQPPGKGLEWIGSIDQRGSTYYNPSLKSRVTISVDTSKNQFSLKLSSVTAADTAVYYCARDAGHAVDMDVWGKGTTVTVSS VL: DIQMTQSPSSVSASVGDRVTITCRASQGISRWLAWYQQKPGKAPKLLIYAASSLQSGVPSRFSGSGSGTDFTLTISSLQPEDFATYYCQQGYVFPLTFGGGTKVEIK | < 0.002 nM | 0.017 nM | 0.006 nM | 0.45 nM |
| AB-28-8 (antibody, V domains shown) VH: QVQLQESGPGLVKPSETLSLTCAVSGYSISSGMGWDWIRQPPGKGLEWIGSIDQRGSTYYNPPLESRVTISVDTSKNQFSLKLSSVTAADTAVYYCARDAGHGVDMDVWGKGTTVTVSS VL: DIQMTQSPSSVSASVGDRVTITCRASQGISRWLAWYQQKPGKAPKLLIYAASSLQSGVPSRFSGSGSGTDFTLTISSLQPEDFATYYCQQGYVFPLTFGGGTKVEIK | < 0.002 nM | 0.046 nM | 0.002 nM | 0.78 nM |
| AB-28-4 (antibody, V domains shown) VH: QVQLQESGPGLVKPSETLSLTCAVSGYPISSGMGWGWIRQPPGKGLEWIGRIDQRGSTYYNPSLKSRATISVDTSKNQFSLKLSSVTAADTAVYYCARDAGHGVDMDVWGKGTTVTVSS VL: DIQMTQSPSSVSASVGDRVTITCRASQGISRWLAWYQQKPGKAPKLLIYAASSLQSGVPSRFSGSGSGTDFTLTISSLQPEDFATYYCQQGYVFPLTFGGGTKVEIK | 0.023 nM |  | 0.14 nM | 0.086 nM |
| AB-28 (antibody, V domains shown) VH: QVQLQESGPGLVKPSETLSLTCAVSGYSISSGMGWGWIRQPPGKGLEWIGSIDQRGSTYYNPSLKSRVTISVDTSKNQFSLKLSSVTAADTAVYYCARDAGHGVDMDVWGKGTTVTVSS VL: DIQMTQSPSSVSASVGDRVTITCRASQGISRWLAWYQQKPGKAPKLLIYAASSLQSGVPSRFSGSGSGTDFTLTISSLQPEDFATYYCQQGYVFPLTFGGGTKVEIK | < 0.002 nM | 0.13 nM | 0.005 nM | 2.2 nM |
| AB-28-9 (antibody, V domains shown) VH: EVQLQESGPGLVRPSETLSLTCAVSGYSISSGMGWGWIRQPPGKGLEWIGSIDQRGSTYYNPSLKSRVTISVDTSKNQFSLKLSSVTAADTAVYYCARDAGHAVDMDVWGKGTTVTVSS VL: DIQMTQSPSSVSASVGDRVTITCRASQGISRWLAWYQQKPGKAPKLLIYAASSLQSGVPSRFSGSGSGTDFTLTISSLQPEDFATYYCQQGYVFPLTFGGGTKVEIK | < 0.002 nM | 0.13 nM | 0.005 nM | 2.2 nM |
| AB-28-7 (antibody, V domains shown) VH: QVQLQESGPGLVKPSETLSLTCAVSGYSISSGMGWDWIRQPPGKGREWIGSIDQRGSTYYNPSLEGRATISVDTSKNQFSLKLSSVTAADTAVYYCARDAGHGVDMDVWGKGTTVTVSS VL: DIQMTQSPSSVSASVGDRVTITCRASQGISRWLAWYQQKPGKAPKLLIYAASSLQSGVPSRFSGSGSGTDFTLTISSLQPEDFATYYCQQGYVFPLTFGGGTKVEIK | < 0.002 nM | 0.052 nM | < 0.002 nM | 0.29 nM |
| AB-28-11 (antibody, V domains shown) VH: QVQLQESGPGLVKPSETLSLTCAVSGYSISSGMGWDWIRQPPGKGLEWIGSIDQRGSTYYNPSLEGRVTISVDTSKNQFSLKLSSVTAADTAVYYCARDAGHGVDMDVWGKGTTVTVSS VL: DIQMTQSPSSVSASVGDRVTITCRASQGISRWLAWYQQKPGKAPKLLIYAASSLQSGVPSRFSGSGSGTDFTLTISSLQPEDFATYYCQQGYVFPLTFGGGTKVEIK | < 0.002 nM | 0.071 nM | 0.003 nM | 1.2 nM |
| AB-28-13 (antibody, V domains shown) VH: QVQLQESGPGLVKPSETLSLTCAVSGYSISSGMGWDWIRQPPGKGLEWIGSIDQRGSTYYNPSLEGRATISVDTSKNQFSLKLSSVTAADTAVYYCARDAGHGVDMDVWGKGTTVTVSS VL: DIQMTQSPSSVSASVGDRVTITCRASQGISRWLAWYQQKPGKAPKLLIYAASSLQSGVPSRFSGSGSGTDFTLTISSLQPEDFATYYCQQGYVFPLTFGGGTKVEIK | < 0.002 nM | 0.089 nM | 0.003 nM | 0.79 nM |
| AB-28-3 (antibody, V domains shown) VH: QVQLQESGPGLVKPSETLSLTCAVSGYSISSGMGWGWIRQPPGKGLEWIGSVDQRGSTYYNPSLKSRVTISVDTSKNQFSLKLSSVTAADTAVYYCARDAGHGADMDVWGKGTTVTVSS VL: DIQMTQSPSSVSASVGDRVTITCRASQGISRWLAWYQQKPGKAPKLLIYAASSLQSGVPSRFSGSGSGTDFTLTISSLQPEDFATYYCQQGYVFPLTFGGGTKVEIK | 0.037 nM | < 0.003 nM | 0.018 nM | 1.7 nM |
| AB-28-12 (antibody, V domains shown) VH: QVQLQESGPGLVKPSETLSLTCAVSGYSISSGMGWDWIRQPPGKGREWIGSIDQRGSTYYNPSLEGRVTISVDTSKNQFSLKLSSVTAADTAVYYCARDAGHGVDMDVWGKGTTVTVSS VL: DIQMTQSPSSVSASVGDRVTITCRASQGISRWLAWYQQKPGKAPKLLIYAASSLQSGVPSRFSGSGSGTDFTLTISSLQPEDFATYYCQQGYVFPLTFGGGTKVEIK | < 0.002 nM | 0.063 nM | < 0.002 nM | 0.46 nM |

Source: patent US20180179267A1 (published 2018)
